According to publication PMC3928541:
Where two headings read alike, the source gives them in different places.

Columns and labels:
mCherry-RAB11A [1] = biological target: mCherry-RAB11A (UniProt P62491); assay: FRET or BRET
mCherry-RAB11A [2] = biological target: mCherry-RAB11A (UniProt P62491); assay: FRET or BRET; remark: listed apart in the source

Sequence of UniProt P62491 (P62491 whole entry): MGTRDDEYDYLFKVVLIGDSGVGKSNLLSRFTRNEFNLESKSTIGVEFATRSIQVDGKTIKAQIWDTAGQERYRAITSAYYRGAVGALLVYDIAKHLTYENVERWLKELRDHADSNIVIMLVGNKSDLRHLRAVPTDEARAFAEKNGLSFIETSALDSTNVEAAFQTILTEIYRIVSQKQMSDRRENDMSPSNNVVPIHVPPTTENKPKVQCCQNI

How did the mean YFP fluorescence lifetime (FLIM) (mCherry-RAB11A [1]) turn out when “KIF13A-YFP fusion protein (natural protein)” was run?
The mean YFP fluorescence lifetime (FLIM) was 2.19 ns.

What about the mean YFP fluorescence lifetime (FLIM) (mCherry-RAB11A [2]) of the same substance?
Its mean YFP fluorescence lifetime (FLIM) is 2.45 ns.
